Results from the supplement of paper PMC10724198.
± gives the standard deviation of the averaged measurements.

System: Saccharomyces cerevisiae
Assay: protein stability index of tFT-peptide fusion (C-terminal peptide) (PSI (0-1 scale)); higher = more stable (slower turnover)
Conditions: genetic background: wild type; temperature: 30 C
Description: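 Multiplexed protein stability (MPS) profiling in S. cerevisiae. Random 12-aa peptides (tFT-X12 library) are fused to the C-terminus of a sfGFP-mCherry tandem fluorescent timer, after mCherry and a GGGS linker. Cells are FACS-sorted into 8 mCherry/sfGFP bins and deep-sequenced. The protein stability index (PSI) is the read-weighted bin average, scaled from 0 (unstable) to 1 (stable). Only peptides with >10 reads are reported; cells were grown at 30 °C in SC-His with glucose.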
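Also: PSI is a weighted mean of sequencing reads over stability bins, variants kept only with over 10 reads, mCherry proximal and sfGFP distal, peptide attached via GGGS linker.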

Sequence	protein stability index
GREGGEQRKEGK	0.692 ± 0.029
GREGTEIGKWRE	0.74 ± 0.12
GRESGNPGEPTC	0.678 ± 0.012
GRGGGVGLVVGG	0.683 ± 0.019
GRGGLGWGEWDR	0.699 ± 0.03
GRGSCVRISSEG	0.706 ± 0.028
GRKQMKINDWNI	0.636 ± 0.077
GRKWRTSCQCVS	0.586 ± 0.026
GRLFGVVSLCLL	0.647 ± 0.035
GRPRSSAVARSA	0.769 ± 0.036
GRQILMLGYMVA	0.548 ± 0.012
GRQRGGRENEGE	0.673 ± 0.064
GRRFIPFSSFIR	0.79 ± 0.096
GRRGPGRARRWG	0.658 ± 0.037
GRRKGGRKAREC	0.588 ± 0.017
GRRVAWGAQGLG	0.602 ± 0.046
GRTPGNALKRND	0.632 ± 0.03
GRVAPNANAVKF	0.607 ± 0.07
GRVEDAFSGGGI	0.643 ± 0.089
GRVRYRGSRFLG	0.656 ± 0.013
GRVSSTRKVGAI	0.678 ± 0.022
GRWGGRLSWAPG	0.628 ± 0.03
GRWRCVYRGCGG	0.646 ± 0.076
GRYAGFESRFGA	0.666 ± 0.018
GRYCDKRLGIVG	0.699 ± 0.011

Sequence	protein stability index
GRYLRRDLVGVF	0.606 ± 0.051
GRYRRRLPLCRG	0.663 ± 0.055
GRYSGSFWSFWS	0.719 ± 0.023
GSARLPLWSLPP	0.793 ± 0.0082
GSAVMLGVSVRV	0.581 ± 0.043
GSCTPLPSIDFD	0.648 ± 0.052
GSEAGEPRAGRA	0.675 ± 0.015
GSGGVGVTSGGK	0.682 ± 0.056
GSGLVTRTSLDY	0.726 ± 0.045
GSGQPDPRDAIG	0.677 ± 0.057
GSGTRNLLFIKS	0.6708 ± 0.001
GSGWRSRRAPGP	0.747 ± 0.047
GSIWVVGWGQGV	0.711 ± 0.032
GSKVGGVGWRSG	0.726 ± 0.0095
GSLGWRGLVRFF	0.611 ± 0.013
GSLHGTSAPPRF	0.731 ± 0.15
GSLPPCPSHAPF	0.698 ± 0.061
GSMVRSDSFLRP	0.66 ± 0.019
GSRRSGITSYAN	0.687 ± 0.011
GSRVRGVMWSFL	0.771 ± 0.067
GSSCRFGDNTVG	0.738 ± 0.046
GSSDTYLLSLVD	0.733 ± 0.052
GSSMLFIEQEVE	0.683 ± 0.028
GSSPIDGLEVYG	0.654 ± 0.041
GSSPRVFPPRFC	0.725 ± 0.033

Sequence	protein stability index
GSTLWGRAWGAR	0.724 ± 0.02
GSVQHRRRDRCD	0.676 ± 0.038
GSVRGFGGGGEE	0.652 ± 0.049
GSWGWHVRGSGV	0.598 ± 0.037
GSYDLMGFQFFI	0.632 ± 0.029
GTCQALARRTGD	0.686 ± 0.061
GTCWAGAMGVVG	0.714 ± 0.043
GTCWGGAMGVVG	0.728 ± 0.042
GTDVFTQAVRNC	0.641 ± 0.019
GTFCLFTPCVWM	0.716 ± 0.044
GTKDRSNMIRKS	0.6702 ± 0.0044
GTKGGPSGLEPP	0.7125 ± 0.0018
GTLLRINLMTIQ	0.663 ± 0.02
GTLYLRVTSKEK	0.717 ± 0.044
GTPWHLRPRCPF	0.749 ± 0.013
GTSCPCGGALRP	0.776 ± 0.035
GTSSTPPPPAPP	0.661 ± 0.016
GTWGGGGWSCES	0.725 ± 0.076
GVAGGGTVVGAQ	0.693 ± 0.017
GVARGFGVVVPA	0.6427 ± 0.0044
GVAWGAGVGMMW	0.732 ± 0.025
GVCWVTAGLWAI	0.6098 ± 0.0021
GVGAPGARGVWG	0.748 ± 0.048
GVGAWGGMCGVV	0.724 ± 0.0082
GVGCGGGGSSCA	0.703 ± 0.11

Sequence	protein stability index
GVGGCRVRGLGA	0.691 ± 0.017
GVGGENRRNGTV	0.721 ± 0.11
GVGGGVMGVGRV	0.665 ± 0.01
GVGQEGVGGRAV	0.707 ± 0.03
GVGWGSSWVGYG	0.898 ± 0.092
GVIFRRFDVGLS	0.682 ± 0.053
GVIGFNSLYGIA	0.632 ± 0.027
GVLGCRWWGSMG	0.657 ± 0.015
GVLPVDKFLKNW	0.735 ± 0.098
GVLRDRAFLTCA	0.618 ± 0.028
GVLVERLCGRGF	0.702 ± 0.049
GVPLSGLVCPRP	0.7103 ± 0.001
GVRGGRGQGWYR	0.6373 ± 0.0018
GVRNISELSRLF	0.644 ± 0.019
GVRSGAGGQVVG	0.701 ± 0.038
GVSIGVLTGAWR	0.646 ± 0.0015
GVVGLCLLGLGR	0.701 ± 0.024
GVVRSAPEAASL	0.573 ± 0.03
GVVVKDPGNAFL	0.704 ± 0.029
GVVVRSCLMGFT	0.619 ± 0.022
GVWGGRGQGWYR	0.674 ± 0.0096
GVWLRTARRISK	0.688 ± 0.037
GVWTPGPIWGRG	0.7134 ± 0.00084
